{"source": "the supplement of paper PMC5998384", "key": {"HeLa Kyoto [1]": {"tested_on": "HeLa Kyoto", "assay": "solubility in G1/S (NP-40 vs SDS abundance) (log2 ratio); higher = more soluble", "settings": "cell cycle stage: G1/S"}, "HeLa Kyoto [2]": {"tested_on": "HeLa Kyoto", "assay": "melting temperature (median over replicates), in situ; higher = more thermally stable"}, "HeLa Kyoto [3]": {"tested_on": "HeLa Kyoto", "assay": "solubility change mitosis vs G1/S (difference of NP-40 vs SDS log2 ratios) (log2 ratio difference); higher = more soluble in mitosis"}, "HeLa Kyoto [4]": {"tested_on": "HeLa Kyoto", "assay": "thermal stability score vs G1/S (z-score of summed log2 fold changes over temperatures); higher = more thermally stable than in G1/S"}, "[5]": {"settings": "cell cycle stage: early G1 (4.5 h after nocodazole release)"}}, "data": [{"sequence": "MLSVRVAAAVVRALPRRAGLVSRNALGSSFIAARNFHASNTHLQKTGTAEMSSILEERILGADTSVDLEETGRVLSIGDGIARVHGLRNVQAEEMVEFSSGLKGMSLNLEPDNVGVVVFGNDKLIKEGDIVKRTGAIVDVPVGEELLGRVVDALGNAIDGKGPIGSKTRRRVGLKAPGIIPRISVREPMQTGIKAVDSLVPIGRGQRELIIGDRQTGKTSIAIDTIINQKRFNDGSDEKKKLYCIYVAIGQKRSTVAQLVKRLTDADAMKYTIVVSATASDAAPLQYLAPYSGCSMGEYFRDNGKHALIIYDDLSKQAVAYRQMSLLLRRPPGREAYPGDVFYLHSRLLERAAKMNDAFGGGSLTALPVIETQAGDVSAYIPTNVISITDGQIFLETELFYKGIRPAINVGLSVSRVGSAAQTRAMKQVAGTMKLELAQYREVAAFAQFGSDLDAATQQLLSRGVRLTELLKQGQYSPMAIEEQVAVIYAGVRGYLDKLEPSKITKFENAFLSHVVSQHQALLGTIRADGKISEQSDAKLKEIVTNFLAGFEA [ATP5A1]", "values": [{"measurement": "solubility in G1/S (log2)", "setting": "HeLa Kyoto [1]", "value": 0.231}, {"measurement": "melting temperature", "setting": "HeLa Kyoto [2]; cell cycle stage: G1/S", "value": 59.9, "unit": "°C"}, {"measurement": "melting temperature", "setting": "HeLa Kyoto [2]; cell cycle stage: mitosis", "value": 58.9, "unit": "°C"}, {"measurement": "solubility change mitosis (log2)", "setting": "HeLa Kyoto [3]", "value": -0.0479}, {"measurement": "thermal stability score", "setting": "HeLa Kyoto [4]; [5]", "value": -1.58}, {"measurement": "thermal stability score", "setting": "HeLa Kyoto [4]; cell cycle stage: mitosis", "value": -1.35}]}, {"sequence": "MLTLQTWLVQALFIFLTTESTGELLDPCGYISPESPVVQLHSNFTAVCVLKEKCMDYFHVNANYIVWKTNHFTIPKEQYTIINRTASSVTFTDIASLNIQLTCNILTFGQLEQNVYGITIISGLPPEKPKNLSCIVNEGKKMRCEWDGGRETHLETNFTLKSEWATHKFADCKAKRDTPTSCTVDYSTVYFVNIEVWVEAENALGKVTSDHINFDPVYKVKPNPPHNLSVINSEELSSILKLTWTNPSIKSVIILKYNIQYRTKDASTWSQIPPEDTASTRSSFTVQDLKPFTEYVFRIRCMKEDGKGYWSDWSEEASGITYEDRPSKAPSFWYKIDPSHTQGYRTVQLVWKTLPPFEANGKILDYEVTLTRWKSHLQNYTVNATKLTVNLTNDRYLATLTVRNLVGKSDAAVLTIPACDFQATHPVMDLKAFPKDNMLWVEWTTPRESVKKYILEWCVLSDKAPCITDWQQEDGTVHRTYLRGNLAESKCYLITVTPVYADGPGSPESIKAYLKQAPPSKGPTVRTKKVGKNEAVLEWDQLPVDVQNGFIRNYTIFYRTIIGNETAVNVDSSHTEYTLSSLTSDTLYMVRMAAYTDEGGKDGPEFTFTTPKFAQGEIEAIVVPVCLAFLLTTLLGVLFCFNKRDLIKKHIWPNVPDPSKSHIAQWSPHTPPRHNFNSKDQMYSDGNFTDVSVVEIEANDKKPFPEDLKSLDLFKKEKINTEGHSSGIGGSSCMSSSRPSISSSDENESSQNTSSTVQYSTVVHSGYRHQVPSVQVFSRSESTQPLLDSEERPEDLQLVDHVDGGDGILPRQQYFKQNCSQHESSPDISHFERSKQVSSVNEEDFVRLKQQISDHISQSCGSGQMKMFQEVSAADAFGPGTEGQVERFETVGMEAATDEGMPKSYLPQTVRQGGYMPQ [IL6ST]", "values": [{"measurement": "solubility in G1/S (log2)", "setting": "HeLa Kyoto [1]", "value": 0.0822}, {"measurement": "melting temperature", "setting": "HeLa Kyoto [2]; cell cycle stage: G1/S", "value": 53.9, "unit": "°C"}, {"measurement": "melting temperature", "setting": "HeLa Kyoto [2]; cell cycle stage: mitosis", "value": 56.2, "unit": "°C"}, {"measurement": "solubility change mitosis (log2)", "setting": "HeLa Kyoto [3]", "value": 0.0736}, {"measurement": "thermal stability score", "setting": "HeLa Kyoto [4]; [5]", "value": -2.55}, {"measurement": "thermal stability score", "setting": "HeLa Kyoto [4]; cell cycle stage: mitosis", "value": -3.18}]}, {"sequence": "MLTTLKPFGSVSVESKMNNKAGSFFWNLRQFSTLVSTSRTMRLCCLGLCKPKIVHSNWNILNNFHNRMQSTDIIRYLFQDAFIFKSDVGFQTKGISTLTALRIERLLYAKRLFFDSKQSLVPVDKSDDELKKVNLNHEVSNEDVLTKETKPNRISSRKLSEECNSLSDVLDAFSKAPTFPSSNYFTAMWTIAKRLSDDQKRFEKRLMFSHPAFNQLCEHMMREAKIMQYKYLLFSLHAIVKLGIPQNTILVQTLLRVTQERINECDEICLSVLSTVLEAMEPCKNVHVLRTGFRILVDQQVWKIEDVFTLQVVMKCIGKDAPIALKRKLEMKALRELDRFSVLNSQHMFEVLAAMNHRSLILLDECSKVVLDNIHGCPLRIMINILQSCKDLQYHNLDLFKGLADYVAATFDIWKFRKVLFILILFENLGFRPVGLMDLFMKRIVEDPESLNMKNILSILHTYSSLNHVYKCQNKEQFVEVMASALTGYLHTISSENLLDAVYSFCLMNYFPLAPFNQLLQKDIISELLTSDDMKNAYKLHTLDTCLKLDDTVYLRDIALSLPQLPRELPSSHTNAKVAEVLSSLLGGEGHFSKDVHLPHNYHIDFEIRMDTNRNQVLPLSDVDTTSATDIQRVAVLCVSRSAYCLGSSHPRGFLAMKMRHLNAMGFHVILVNNWEMDKLEMEDAVTFLKTKIYSVEALPVAAVNVQSTQ [FASTKD2]", "values": [{"measurement": "solubility in G1/S (log2)", "setting": "HeLa Kyoto [1]", "value": -0.17}, {"measurement": "melting temperature", "setting": "HeLa Kyoto [2]; cell cycle stage: G1/S", "value": 51.8, "unit": "°C"}, {"measurement": "melting temperature", "setting": "HeLa Kyoto [2]; cell cycle stage: mitosis", "value": 51.1, "unit": "°C"}, {"measurement": "solubility change mitosis (log2)", "setting": "HeLa Kyoto [3]", "value": -0.134}, {"measurement": "thermal stability score", "setting": "HeLa Kyoto [4]; [5]", "value": 0.322}, {"measurement": "thermal stability score", "setting": "HeLa Kyoto [4]; cell cycle stage: mitosis", "value": 0.825}]}, {"sequence": "MLVPLAKLSCLAYQCFHALKIKKNYLPLCATRWSSTSTVPRITTHYTIYPRDKDKRWEGVNMERFAEEADVVIVGAGPAGLSAAVRLKQLAVAHEKDIRVCLVEKAAQIGAHTLSGACLDPGAFKELFPDWKEKGAPLNTPVTEDRFGILTEKYRIPVPILPGLPMNNHGNYIVRLGHLVSWMGEQAEALGVEVYPGYAAAEVLFHDDGSVKGIATNDVGIQKDGAPKATFERGLELHAKVTIFAEGCHGHLAKQLYKKFDLRANCEPQTYGIGLKELWVIDEKNWKPGRVDHTVGWPLDRHTYGGSFLYHLNEGEPLVALGLVVGLDYQNPYLSPFREFQRWKHHPSIRPTLEGGKRIAYGARALNEGGFQSIPKLTFPGGLLIGCSPGFMNVPKIKGTHTAMKSGILAAESIFNQLTSENLQSKTIGLHVTEYEDNLKNSWVWKELYSVRNIRPSCHGVLGVYGGMIYTGIFYWILRGMEPWTLKHKGSDFERLKPAKDCTPIEYPKPDGQISFDLLSSVALSGTNHEHDQPAHLTLRDDSIPVNRNLSIYDGPEQRFCPAGVYEFVPVEQGDGFRLQINAQNCVHCKTCDIKDPSQNINWVVPEGGGGPAYNGM [ETFDH]", "values": [{"measurement": "solubility in G1/S (log2)", "setting": "HeLa Kyoto [1]", "value": 0.107}, {"measurement": "melting temperature", "setting": "HeLa Kyoto [2]; cell cycle stage: G1/S", "value": 54.4, "unit": "°C"}, {"measurement": "melting temperature", "setting": "HeLa Kyoto [2]; cell cycle stage: mitosis", "value": 53.8, "unit": "°C"}, {"measurement": "solubility change mitosis (log2)", "setting": "HeLa Kyoto [3]", "value": -0.184}, {"measurement": "thermal stability score", "setting": "HeLa Kyoto [4]; [5]", "value": -0.885}, {"measurement": "thermal stability score", "setting": "HeLa Kyoto [4]; cell cycle stage: mitosis", "value": -1.65}]}]}
